*1 amine or outer side, *2 acyl side, *3 side chain or, on linkers, in order; H or OH if unused. Side-chain parts run from the residue outwards. The star is where a group is joined. C18 diacid = O=C(O)CCCCCCCCCCCCCCCCC(=O)*; γGlu = O=C(O)[C@H](CCC(=O)[*:2])N[*:1]; Isovaleryl = CC(C)CC(=O)*; Ahx = NCCCCCC(=O)O
T1: human NPY2 receptor (human, UniProt P49146 1-381)
T1 construct: whole, on cells; also called hNPY2-R; hNPY2R
T1 sequence (looked up): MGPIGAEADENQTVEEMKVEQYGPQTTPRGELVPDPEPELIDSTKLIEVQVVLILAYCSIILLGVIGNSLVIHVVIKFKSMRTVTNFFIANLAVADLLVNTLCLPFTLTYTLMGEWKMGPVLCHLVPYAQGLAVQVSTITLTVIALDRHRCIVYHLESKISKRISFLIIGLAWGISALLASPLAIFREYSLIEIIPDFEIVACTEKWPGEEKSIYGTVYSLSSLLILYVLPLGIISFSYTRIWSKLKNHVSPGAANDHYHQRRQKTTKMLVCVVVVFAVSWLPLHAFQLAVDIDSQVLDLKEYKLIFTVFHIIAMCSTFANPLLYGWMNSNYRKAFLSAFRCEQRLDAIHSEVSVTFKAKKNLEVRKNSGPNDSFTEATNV

B1: Compound 177 (peptide)
peptide: Isovaleryl-APEK([Ahx-γGlu-C18 diacid])PEEDATPEELQQYYVSLRHYYNWLTRQRY-NH2
SMILES: CC(C)CC(=O)N[C@@H](C)C(=O)N1CCC[C@H]1C(=O)N[C@@H](CCC(=O)O)C(=O)N[C@@H](CCCCNC(=O)CCCCCNC(=O)CC[C@H](NC(=O)CCCCCCCCCCCCCCCCC(=O)O)C(=O)O)C(=O)N1CCC[C@H]1C(=O)N[C@@H](CCC(=O)O)C(=O)N[C@@H](CCC(=O)O)C(=O)N[C@@H](CC(=O)O)C(=O)N[C@@H](C)C(=O)N[C@H](C(=O)N1CCC[C@H]1C(=O)N[C@@H](CCC(=O)O)C(=O)N[C@@H](CCC(=O)O)C(=O)N[C@@H](CC(C)C)C(=O)N[C@@H](CCC(N)=O)C(=O)N[C@@H](CCC(N)=O)C(=O)N[C@@H](Cc1ccc(O)cc1)C(=O)N[C@@H](Cc1ccc(O)cc1)C(=O)N[C@H](C(=O)N[C@@H](CO)C(=O)N[C@@H](CC(C)C)C(=O)N[C@@H](CCCNC(=N)N)C(=O)N[C@@H](Cc1c[nH]cn1)C(=O)N[C@@H](Cc1ccc(O)cc1)C(=O)N[C@@H](Cc1ccc(O)cc1)C(=O)N[C@@H](CC(N)=O)C(=O)N[C@@H](Cc1c[nH]c2ccccc12)C(=O)N[C@@H](CC(C)C)C(=O)N[C@H](C(=O)N[C@@H](CCCNC(=N)N)C(=O)N[C@@H](CCC(N)=O)C(=O)N[C@@H](CCCNC(=N)N)C(=O)N[C@@H](Cc1ccc(O)cc1)C(N)=O)[C@@H](C)O)C(C)C)[C@@H](C)O
B2: Compound 180 (peptide)
peptide: Isovaleryl-APEK([Ahx-γGlu-C18 diacid])PEEDATPEELQRYYVSLRHYYNWLTKQRY-NH2
SMILES: CC(C)CC(=O)N[C@@H](C)C(=O)N1CCC[C@H]1C(=O)N[C@@H](CCC(=O)O)C(=O)N[C@@H](CCCCNC(=O)CCCCCNC(=O)CC[C@H](NC(=O)CCCCCCCCCCCCCCCCC(=O)O)C(=O)O)C(=O)N1CCC[C@H]1C(=O)N[C@@H](CCC(=O)O)C(=O)N[C@@H](CCC(=O)O)C(=O)N[C@@H](CC(=O)O)C(=O)N[C@@H](C)C(=O)N[C@H](C(=O)N1CCC[C@H]1C(=O)N[C@@H](CCC(=O)O)C(=O)N[C@@H](CCC(=O)O)C(=O)N[C@@H](CC(C)C)C(=O)N[C@@H](CCC(N)=O)C(=O)N[C@@H](CCCNC(=N)N)C(=O)N[C@@H](Cc1ccc(O)cc1)C(=O)N[C@@H](Cc1ccc(O)cc1)C(=O)N[C@H](C(=O)N[C@@H](CO)C(=O)N[C@@H](CC(C)C)C(=O)N[C@@H](CCCNC(=N)N)C(=O)N[C@@H](Cc1c[nH]cn1)C(=O)N[C@@H](Cc1ccc(O)cc1)C(=O)N[C@@H](Cc1ccc(O)cc1)C(=O)N[C@@H](CC(N)=O)C(=O)N[C@@H](Cc1c[nH]c2ccccc12)C(=O)N[C@@H](CC(C)C)C(=O)N[C@H](C(=O)N[C@@H](CCCCN)C(=O)N[C@@H](CCC(N)=O)C(=O)N[C@@H](CCCNC(=N)N)C(=O)N[C@@H](Cc1ccc(O)cc1)C(N)=O)[C@@H](C)O)C(C)C)[C@@H](C)O
B3: Compound 181 (peptide)
peptide: Isovaleryl-APAK([Ahx-γGlu-C18 diacid])PEADAEPEEIQRYYVALRHYYNWLTRQRY-NH2
SMILES: CC[C@H](C)[C@H](NC(=O)[C@H](CCC(=O)O)NC(=O)[C@H](CCC(=O)O)NC(=O)[C@@H]1CCCN1C(=O)[C@H](CCC(=O)O)NC(=O)[C@H](C)NC(=O)[C@H](CC(=O)O)NC(=O)[C@H](C)NC(=O)[C@H](CCC(=O)O)NC(=O)[C@@H]1CCCN1C(=O)[C@H](CCCCNC(=O)CCCCCNC(=O)CC[C@H](NC(=O)CCCCCCCCCCCCCCCCC(=O)O)C(=O)O)NC(=O)[C@H](C)NC(=O)[C@@H]1CCCN1C(=O)[C@H](C)NC(=O)CC(C)C)C(=O)N[C@@H](CCC(N)=O)C(=O)N[C@@H](CCCNC(=N)N)C(=O)N[C@@H](Cc1ccc(O)cc1)C(=O)N[C@@H](Cc1ccc(O)cc1)C(=O)N[C@H](C(=O)N[C@@H](C)C(=O)N[C@@H](CC(C)C)C(=O)N[C@@H](CCCNC(=N)N)C(=O)N[C@@H](Cc1c[nH]cn1)C(=O)N[C@@H](Cc1ccc(O)cc1)C(=O)N[C@@H](Cc1ccc(O)cc1)C(=O)N[C@@H](CC(N)=O)C(=O)N[C@@H](Cc1c[nH]c2ccccc12)C(=O)N[C@@H](CC(C)C)C(=O)N[C@H](C(=O)N[C@@H](CCCNC(=N)N)C(=O)N[C@@H](CCC(N)=O)C(=O)N[C@@H](CCCNC(=N)N)C(=O)N[C@@H](Cc1ccc(O)cc1)C(N)=O)[C@@H](C)O)C(C)C
B4: Compound 178 (peptide)
peptide: Isovaleryl-APEK([Ahx-γGlu-C18 diacid])PEAAATPEEIQRYYVALRHYYNWLTRQRY-NH2
SMILES: CC[C@H](C)[C@H](NC(=O)[C@H](CCC(=O)O)NC(=O)[C@H](CCC(=O)O)NC(=O)[C@@H]1CCCN1C(=O)[C@@H](NC(=O)[C@H](C)NC(=O)[C@H](C)NC(=O)[C@H](C)NC(=O)[C@H](CCC(=O)O)NC(=O)[C@@H]1CCCN1C(=O)[C@H](CCCCNC(=O)CCCCCNC(=O)CC[C@H](NC(=O)CCCCCCCCCCCCCCCCC(=O)O)C(=O)O)NC(=O)[C@H](CCC(=O)O)NC(=O)[C@@H]1CCCN1C(=O)[C@H](C)NC(=O)CC(C)C)[C@@H](C)O)C(=O)N[C@@H](CCC(N)=O)C(=O)N[C@@H](CCCNC(=N)N)C(=O)N[C@@H](Cc1ccc(O)cc1)C(=O)N[C@@H](Cc1ccc(O)cc1)C(=O)N[C@H](C(=O)N[C@@H](C)C(=O)N[C@@H](CC(C)C)C(=O)N[C@@H](CCCNC(=N)N)C(=O)N[C@@H](Cc1c[nH]cn1)C(=O)N[C@@H](Cc1ccc(O)cc1)C(=O)N[C@@H](Cc1ccc(O)cc1)C(=O)N[C@@H](CC(N)=O)C(=O)N[C@@H](Cc1c[nH]c2ccccc12)C(=O)N[C@@H](CC(C)C)C(=O)N[C@H](C(=O)N[C@@H](CCCNC(=N)N)C(=O)N[C@@H](CCC(N)=O)C(=O)N[C@@H](CCCNC(=N)N)C(=O)N[C@@H](Cc1ccc(O)cc1)C(N)=O)[C@@H](C)O)C(C)C
B5: Compound 179 (peptide)
peptide: Isovaleryl-APEK([Ahx-γGlu-C18 diacid])PEADASPEETQRYYVALRHYYNWLTRQRY-NH2
SMILES: CC(C)CC(=O)N[C@@H](C)C(=O)N1CCC[C@H]1C(=O)N[C@@H](CCC(=O)O)C(=O)N[C@@H](CCCCNC(=O)CCCCCNC(=O)CC[C@H](NC(=O)CCCCCCCCCCCCCCCCC(=O)O)C(=O)O)C(=O)N1CCC[C@H]1C(=O)N[C@@H](CCC(=O)O)C(=O)N[C@@H](C)C(=O)N[C@@H](CC(=O)O)C(=O)N[C@@H](C)C(=O)N[C@@H](CO)C(=O)N1CCC[C@H]1C(=O)N[C@@H](CCC(=O)O)C(=O)N[C@@H](CCC(=O)O)C(=O)N[C@H](C(=O)N[C@@H](CCC(N)=O)C(=O)N[C@@H](CCCNC(=N)N)C(=O)N[C@@H](Cc1ccc(O)cc1)C(=O)N[C@@H](Cc1ccc(O)cc1)C(=O)N[C@H](C(=O)N[C@@H](C)C(=O)N[C@@H](CC(C)C)C(=O)N[C@@H](CCCNC(=N)N)C(=O)N[C@@H](Cc1c[nH]cn1)C(=O)N[C@@H](Cc1ccc(O)cc1)C(=O)N[C@@H](Cc1ccc(O)cc1)C(=O)N[C@@H](CC(N)=O)C(=O)N[C@@H](Cc1c[nH]c2ccccc12)C(=O)N[C@@H](CC(C)C)C(=O)N[C@H](C(=O)N[C@@H](CCCNC(=N)N)C(=O)N[C@@H](CCC(N)=O)C(=O)N[C@@H](CCCNC(=N)N)C(=O)N[C@@H](Cc1ccc(O)cc1)C(N)=O)[C@@H](C)O)C(C)C)[C@@H](C)O

The binders below were run against T1, human NPY2 receptor (assay: RLB: displacement of 125I-PYY(1-36) from hNPY2R membranes).

| Ki [nM] | Binder |
| --- | --- |
| 8.65 | B1 |
| 15.1 | B2 |
| 1.33 | B3 |
| 3.39 | B4 |
| 0.89 | B5 |
